Read-outs that look alike come from different tables or passages of the source.
Biological target: GPCR142 (Homo sapiens, UniProt Q8TDU9, L329S)
Test: GTPγS binding assay, GPCR142 expressing cell membranes
Assay type: biochemical
Design: The complete coding region of human GPCR142 was PCR-amplified from human genomic DNA; expressed in transfected cells; CHO membranes (GTPγS); HEK293 co-transfected with Gα16 (Ca2+)
Protocol: The GPCR142 expression vector described above was transfected into CHO cells using Lipofectamine (Invitrogen) according to the manufacturer's instructions. Two days after transfection, the cells were harvested and the cell membranes were prepared by homogenizing the cells in cold 50 mM Tris-HCl, 5 mM EDTA, pH 7.5 followed by centrifugation at 4° C. 1000 g for 10 min. The supernatant was centrifuged at 4° C. 20,000 g for 30 min and the pellet was re-suspended in GTPγS binding buffer: 50 mM Tris-HCl, pH 7.4, 10 mM MgCl2, 1 mM EDTA, pH 8.0, and 100 mM NaCl using a polytron tissue homogenizer. Protease inhibitors were added to the buffer at concentrations of 1 mM PMSF, 10 μg/ml of pepstatin A, 10 μg/ml of leupeptin. Cell membranes and different concentrations of ligands were added to 96-well plates and incubated at room temperature for 20 min. ^35S-GTPγS (NEN) was then added to each well at a final concentration of […] in a final volume of 200 μL. The reactions were allowed to proceed at room temperature for 1 h, and then the mixtures were filtered though a 96-well GFC filter plate (Packard) and washed with cold washing buffer: 50 mM Tris-HCl, pH 7.4, 10 mM MgCl2. Fifty microliters of Microscint-40 (Packard) was added to each well and the plate was counted on a top counter (TopCount NTX, Packard).

Chain of GPCR142 (Q8TDU9 whole entry L329S): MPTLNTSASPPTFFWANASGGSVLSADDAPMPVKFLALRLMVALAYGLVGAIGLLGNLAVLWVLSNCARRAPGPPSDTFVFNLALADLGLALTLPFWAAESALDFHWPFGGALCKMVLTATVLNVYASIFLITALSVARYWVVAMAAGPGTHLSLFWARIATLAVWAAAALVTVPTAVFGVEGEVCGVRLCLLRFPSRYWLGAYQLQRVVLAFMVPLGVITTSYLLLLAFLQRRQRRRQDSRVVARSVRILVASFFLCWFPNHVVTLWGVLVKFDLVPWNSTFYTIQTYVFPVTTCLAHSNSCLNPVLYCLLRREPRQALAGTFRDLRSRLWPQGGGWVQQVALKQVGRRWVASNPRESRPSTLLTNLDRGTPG

Substance: relaxin3: Human relaxin3 (SEQ ID NO: 6), produced recombinantly; mature peptide of A- and B-chain linked by disulfide bridges
- stimulation of 35S-GTPγS binding (agonist activity): stimulate
- stimulation of 35S-GTPγS binding (agonist activity) (listed as human recombinant relaxin3): stimulated GTPγS binding

Source: patent US20050059089A1 (priority 2003, published 2005)
